Percentage of cohesin dimers data for one substance are collected here from doi:10.1101/2020.02.07.938530.

Like-named read-outs stand apart in the source and are kept apart here.

Assay [1] addresses 5FLAG-Scc1 (yeast (budding yeast, Saccharomyces cerevisiae)) (UniProt Q12158). As to the kind of experiment: co-IP.
For assay [2] the target is unchanged. As to the kind of experiment: co-IP. This is another data set of the same source.

UniProt Q12158, sequence (Q12158 whole entry): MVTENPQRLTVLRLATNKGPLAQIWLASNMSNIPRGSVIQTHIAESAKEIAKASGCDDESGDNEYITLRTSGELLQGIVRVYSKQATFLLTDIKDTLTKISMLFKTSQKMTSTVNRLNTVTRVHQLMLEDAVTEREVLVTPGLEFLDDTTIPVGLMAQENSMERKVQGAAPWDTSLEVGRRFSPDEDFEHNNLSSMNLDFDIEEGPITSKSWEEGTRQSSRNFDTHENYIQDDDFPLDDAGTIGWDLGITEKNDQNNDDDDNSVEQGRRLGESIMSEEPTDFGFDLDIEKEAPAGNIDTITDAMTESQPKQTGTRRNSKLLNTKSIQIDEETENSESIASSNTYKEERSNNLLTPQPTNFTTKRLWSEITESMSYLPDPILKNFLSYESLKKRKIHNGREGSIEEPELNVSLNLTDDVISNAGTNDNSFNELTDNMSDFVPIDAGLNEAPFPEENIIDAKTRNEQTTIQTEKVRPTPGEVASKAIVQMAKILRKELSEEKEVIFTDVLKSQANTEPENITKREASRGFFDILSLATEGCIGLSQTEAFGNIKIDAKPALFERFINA

In the case of “GFP-Scc1 (from UniProt Q12158 1-566) (natural protein)”, the percentage of cohesin dimers came to 40% in assay [1] and 20% in assay [2].
